B1: M830: TEM8 monoclonal antibody (hIgG1), VH SEQ ID NO:5, VL SEQ ID NO:6 (antibody, V domains shown)
VH: EVQLVESGGGVVQPGRSVRLSCAASGFTFSTYTMHWVRQAPGKGLEWVAIISNDGSNKYYADPVRGRFTISRDNSKNTLYLQMNSLRAEDTAVYYCVRGSSWYRGNWFDPWGQGTLVTVSS
VL: DIQMTQSPSSLSASVGDRVTIACRASQTISRYLNWYQQKPGKAPKLLIYAASSLQSGVSSRFSGSGSGTEFTLTISSLQPEDFATYFCQQTYSPPITFGQGTRLEIKR
modifications: TEM830 mAb VH; TEM830 mAb VL

What was measured:
[1] = test system: H460 tumors; assay: H460 xenograft model, M830 with gemcitabine, cisplatin or radiation; assay type: in vivo, nude mice; details: endpoint 2000 mm^3 or Day 58; logrank
Excerpt: (§1) The statistical tests were not adjusted for multiple comparisons.
Treatment began on Day 1 in eight groups of nude mice (n=10) with established subcutaneous H460 tumors of 75-126 mm^3. […] The study endpoint was a tumor volume of 2000 mm^3 or the final day, Day 58, whichever came first. […] The median TTE for controls was 15.6 days, establishing a maximum possible TGD of 42.4 days (272%) for the 58-day study.

[2] = test system: H460 cells; assay: H460 non-small cell lung carcinoma xenograft model, M830 with bevacizumab or paclitaxel; assay type: in vivo, athymic nude mice; details: for % Tumor Reduction vs. combination partner at Day (#): Day 32
Procedure: Animals were monitored for regression responses.
as §1
Cultured H460 cells were harvested during exponential growth and resuspended in phosphate buffered saline at a concentration of 1×10^8 cells/mL. 1.0×10^7 tumor cells were injected subcutaneously into the flank of athymic nude mice. Animals were euthanized when tumors reached the pre-determined volume endpoint of 2000 mm^3 or on the final day (Day 88), whichever came first.

[3] = test system: DLD-1 tumor cells; assay: DLD-1 colorectal adenocarcinoma xenograft model, first study; assay type: in vivo, mice; details: DLD1 Colon, Day 21
Procedure: Tumor weights were calculated following surgical removal. […] Irinotecan was given once per week at 60 mg/kg i.v. and bevacizumab was dosed at 5 mg/kg i.p., three times per week.

[4] = test system: HCT116 tumor cells; assay: HCT116 colorectal carcinoma xenograft model, TEM8 antibodies; assay type: in vivo, mice; details: HCT116 Colon; no combination partner; M830 IP 3 times per week; start at 60-80 mm^3
Procedure: Tumor cells were cultured in RPMI-1640 medium supplemented with 10% fetal bovine serum, 2 mM glutamine, 100 units/mL penicillin G sodium, 100 μg/mL streptomycin sulfate, and 25 μg/mL gentamicin. The tumor cells were grown in tissue culture flasks in a humidified incubator at 37° C., in an atmosphere of 5% CO2 and 95% air.
2.5×10^6 to 5×10^6 HCT116 tumor cells were injected subcutaneously into the flank of mice. Tumor weights were calculated following surgical removal. Treatment was initiated when tumor volume reached 60-80 mm^3. Dosing volume was 10 mL/kg (0.2 mL/20 g mouse).
TEM8 Ab (hIgG1) doses were 5 and 15 mg/kg, three times per week, for 3 weeks. Bevacizumab was dosed at 5 mg/kg, twice per week, for 3 weeks. FIG. 1B and FIG. 1D show mean tumor growth and percent body weight change for each group, respectively, over the time course of the study.

[5] = combination partner Bevacizumab

Molecule	outcome (survival) compared to vehicle-treated controls [1]	% Tumor Reduction vs. combination partner at Day (#) [2, 5] [%]	% Tumor Reduction vs. Vehicle at Day 21 ([2]; combination partner Bevacizumab, M830 IP 3 times per week) [%^]	regression (vs. Vehicle at Day 21) ([2]; combination partner Paclitaxel)	% Tumor Reduction vs. combination partner at Day (#) ([2]; combination partner Paclitaxel) [%]	% Tumor Reduction vs. combination partner at Day (#) [3, 5] [%]	% Tumor Reduction vs. combination partner at Day (#) ([3]; combination partner Irinotecan) [%]	% Tumor Reduction vs. Vehicle at Day 21 [4] [%^]
N.N.[Cl][Pt][Cl] [Cisplatin, cisplatin]	statistically significant survival benefit	–	–	–	–	–	–	–
Nc1ccn([C@@H]2O[C@H](CO)[C@@H](O)C2(F)F)c(=O)n1 [gemcitabine]	not statistically different	–	–	–	–	–	–	–
B1	not statistically different	58.5	94.5	(−61%	94	48	53	39.5

Reference: patent publication US10799584B2, “Combination therapies using agents that target tumor-associated stroma or tumor cells and alkylating agents” (BIOMED VALLEY DISCOVERIES, INC., priority 2014, dated 2020)
